Measurements as given in US10500249B2, “Compositions and methods for preventing or treating diseases, conditions, or processes characterized by aberrant fibroblast proliferation and extracellular matrix deposition” (MOERAE MATRIX, INC., priority 2014, dated 2019).

Tests used:
Experiment in all cases: Kinase Profiling Assay
Assay type in all cases: biochemical
Conditions in all cases: 100 μM
eEF-2K (h) = biological target: T1, eEF-2K (h) (Homo sapiens, UniProt O00418)
T1 construct: purchased Millipore
How it was run: (§1)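 Each kinase activity was measured in duplicate. Phosphorylation of a positively charged substrate with radiolabeled phosphate from ATP was captured on a negatively charged filter, counted by scintillation and expressed relative to a 100% activity control. MK2 inhibitory peptides were screened for specificity across 266 human kinases.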

EphA7 (h) = EphA7 (h) (Homo sapiens, UniProt Q15375)
How it was run: as §1

LIMK1 (h) = LIMK1 (h) (Homo sapiens, UniProt P53667)
How it was run: as §1

DDR2 (h) = biological target: T2, DDR2 (h) (Homo sapiens, UniProt Q16832)
T2 construct: purchased Millipore
T2 sequence (Q16832 22-855): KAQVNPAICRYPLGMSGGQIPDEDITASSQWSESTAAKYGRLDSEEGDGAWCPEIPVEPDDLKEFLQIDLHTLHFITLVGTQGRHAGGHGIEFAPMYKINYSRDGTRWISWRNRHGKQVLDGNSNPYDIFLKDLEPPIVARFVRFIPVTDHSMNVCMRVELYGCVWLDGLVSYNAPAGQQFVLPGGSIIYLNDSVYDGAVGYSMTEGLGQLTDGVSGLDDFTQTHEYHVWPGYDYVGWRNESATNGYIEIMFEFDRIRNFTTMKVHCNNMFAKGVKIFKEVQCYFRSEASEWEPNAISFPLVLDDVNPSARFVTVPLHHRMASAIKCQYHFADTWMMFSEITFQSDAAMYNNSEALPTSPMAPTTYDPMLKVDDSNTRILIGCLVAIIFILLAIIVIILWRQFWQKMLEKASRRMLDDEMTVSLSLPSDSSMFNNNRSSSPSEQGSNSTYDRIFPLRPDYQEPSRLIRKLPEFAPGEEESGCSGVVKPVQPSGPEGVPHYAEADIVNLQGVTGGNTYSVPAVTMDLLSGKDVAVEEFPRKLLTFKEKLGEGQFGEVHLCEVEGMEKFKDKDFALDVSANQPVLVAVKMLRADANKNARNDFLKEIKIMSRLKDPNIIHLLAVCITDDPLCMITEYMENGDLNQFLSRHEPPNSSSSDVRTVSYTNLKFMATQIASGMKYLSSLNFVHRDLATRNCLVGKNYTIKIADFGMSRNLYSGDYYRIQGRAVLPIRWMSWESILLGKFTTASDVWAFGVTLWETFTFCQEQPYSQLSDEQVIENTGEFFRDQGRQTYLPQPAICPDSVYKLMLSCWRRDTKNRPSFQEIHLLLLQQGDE
How it was run: as §1

TAK1 (h) = biological target: T3, TAK1 (h) (Homo sapiens, UniProt O43318)
T3 sequence (O43318 with tags, fused parts or gaps limits assumed): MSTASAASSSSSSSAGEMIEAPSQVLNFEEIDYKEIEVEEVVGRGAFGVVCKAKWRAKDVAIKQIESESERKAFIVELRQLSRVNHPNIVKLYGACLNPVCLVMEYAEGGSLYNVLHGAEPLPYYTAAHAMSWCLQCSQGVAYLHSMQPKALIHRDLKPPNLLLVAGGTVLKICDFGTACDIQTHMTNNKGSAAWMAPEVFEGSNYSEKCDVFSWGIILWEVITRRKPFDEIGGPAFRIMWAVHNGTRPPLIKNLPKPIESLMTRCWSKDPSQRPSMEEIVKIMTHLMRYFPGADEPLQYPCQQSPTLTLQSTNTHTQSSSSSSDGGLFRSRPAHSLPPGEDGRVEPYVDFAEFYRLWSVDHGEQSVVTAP
How it was run: as §1

DYRK2 (h) = biological target: T4, DYRK2 (h) (Homo sapiens, UniProt Q92630)
T4 construct: purchased Millipore
T4 sequence (Q92630 1-601): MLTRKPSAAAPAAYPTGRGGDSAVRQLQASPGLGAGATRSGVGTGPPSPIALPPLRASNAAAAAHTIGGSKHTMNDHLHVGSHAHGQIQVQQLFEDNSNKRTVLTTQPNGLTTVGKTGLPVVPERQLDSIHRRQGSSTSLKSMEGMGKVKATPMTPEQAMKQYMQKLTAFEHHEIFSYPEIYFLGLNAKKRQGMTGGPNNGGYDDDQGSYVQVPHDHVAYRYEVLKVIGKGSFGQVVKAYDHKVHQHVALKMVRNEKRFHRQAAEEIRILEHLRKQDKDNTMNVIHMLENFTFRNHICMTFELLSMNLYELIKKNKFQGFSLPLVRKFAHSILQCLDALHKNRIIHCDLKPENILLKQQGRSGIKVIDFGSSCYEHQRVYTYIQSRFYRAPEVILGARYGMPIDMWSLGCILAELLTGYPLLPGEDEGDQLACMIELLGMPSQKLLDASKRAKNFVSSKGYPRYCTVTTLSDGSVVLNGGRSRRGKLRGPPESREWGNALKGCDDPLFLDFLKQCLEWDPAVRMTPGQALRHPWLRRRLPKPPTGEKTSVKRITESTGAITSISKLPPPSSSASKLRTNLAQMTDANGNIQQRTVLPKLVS
How it was run: as §1

ALK (h) = ALK (h) (Homo sapiens, UniProt Q9UM73)
How it was run: as §1

MKK6 (h) = biological target: T5, MKK6 (h) (Homo sapiens, UniProt P52564)
T5 construct: purchased Millipore
T5 sequence (P52564 1-334): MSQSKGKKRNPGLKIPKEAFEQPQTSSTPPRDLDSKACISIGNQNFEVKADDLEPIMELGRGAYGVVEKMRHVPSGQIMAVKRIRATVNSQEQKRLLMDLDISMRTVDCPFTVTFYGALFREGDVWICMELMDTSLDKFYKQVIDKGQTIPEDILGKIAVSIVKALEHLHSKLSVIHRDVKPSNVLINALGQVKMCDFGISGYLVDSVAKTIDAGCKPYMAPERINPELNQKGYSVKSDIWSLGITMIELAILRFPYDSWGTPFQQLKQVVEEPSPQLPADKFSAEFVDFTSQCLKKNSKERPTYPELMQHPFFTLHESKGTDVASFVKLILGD
How it was run: as §1

Met(Y1248D) (h) = Met(Y1248D) (h) (Homo sapiens, UniProt P08581, Y1230D)
How it was run: as §1

Chain of LIMK1 (h) (P53667 whole entry): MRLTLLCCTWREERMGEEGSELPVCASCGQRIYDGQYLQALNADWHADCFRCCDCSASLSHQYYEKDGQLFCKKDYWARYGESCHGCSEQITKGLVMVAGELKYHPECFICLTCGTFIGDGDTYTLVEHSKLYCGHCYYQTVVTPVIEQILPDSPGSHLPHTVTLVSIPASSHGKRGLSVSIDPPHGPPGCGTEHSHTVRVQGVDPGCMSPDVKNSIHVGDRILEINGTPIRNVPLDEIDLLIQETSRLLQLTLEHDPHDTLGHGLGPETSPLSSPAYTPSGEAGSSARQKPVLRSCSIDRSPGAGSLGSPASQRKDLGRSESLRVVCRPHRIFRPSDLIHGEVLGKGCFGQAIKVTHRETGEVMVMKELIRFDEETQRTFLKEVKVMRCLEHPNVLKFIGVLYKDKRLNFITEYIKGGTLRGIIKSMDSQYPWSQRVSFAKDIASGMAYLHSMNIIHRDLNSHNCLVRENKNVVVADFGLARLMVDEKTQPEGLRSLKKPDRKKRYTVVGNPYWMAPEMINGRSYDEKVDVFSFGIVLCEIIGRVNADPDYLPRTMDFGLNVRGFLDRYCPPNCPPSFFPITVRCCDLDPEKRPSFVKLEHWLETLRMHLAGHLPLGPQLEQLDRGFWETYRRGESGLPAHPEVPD
Chain of EphA7 (h) (Q15375 28-998): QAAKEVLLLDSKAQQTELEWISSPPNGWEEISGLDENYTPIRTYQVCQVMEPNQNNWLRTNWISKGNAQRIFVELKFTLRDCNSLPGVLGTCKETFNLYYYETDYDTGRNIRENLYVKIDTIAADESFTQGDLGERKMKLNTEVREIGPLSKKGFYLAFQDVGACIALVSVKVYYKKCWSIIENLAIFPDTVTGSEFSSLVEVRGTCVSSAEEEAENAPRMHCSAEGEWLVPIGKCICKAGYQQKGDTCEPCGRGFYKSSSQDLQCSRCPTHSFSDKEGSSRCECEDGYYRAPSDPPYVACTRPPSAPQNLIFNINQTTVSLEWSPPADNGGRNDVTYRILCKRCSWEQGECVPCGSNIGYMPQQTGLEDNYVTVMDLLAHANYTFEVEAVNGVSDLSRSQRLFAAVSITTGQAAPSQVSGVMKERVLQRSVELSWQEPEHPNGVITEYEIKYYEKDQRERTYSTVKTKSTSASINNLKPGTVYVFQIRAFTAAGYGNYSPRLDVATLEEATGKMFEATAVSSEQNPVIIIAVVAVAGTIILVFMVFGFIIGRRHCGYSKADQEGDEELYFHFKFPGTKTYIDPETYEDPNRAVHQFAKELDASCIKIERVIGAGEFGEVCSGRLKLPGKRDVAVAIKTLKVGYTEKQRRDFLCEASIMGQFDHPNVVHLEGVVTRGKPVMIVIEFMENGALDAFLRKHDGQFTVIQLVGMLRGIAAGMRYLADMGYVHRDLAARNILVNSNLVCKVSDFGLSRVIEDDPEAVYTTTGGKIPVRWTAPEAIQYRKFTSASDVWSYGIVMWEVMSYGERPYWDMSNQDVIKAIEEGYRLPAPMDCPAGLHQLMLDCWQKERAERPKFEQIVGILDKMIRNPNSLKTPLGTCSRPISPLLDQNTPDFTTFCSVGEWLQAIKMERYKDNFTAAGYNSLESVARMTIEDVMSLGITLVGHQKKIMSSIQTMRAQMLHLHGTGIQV
Chain of ALK (h) (Q9UM73 19-1620): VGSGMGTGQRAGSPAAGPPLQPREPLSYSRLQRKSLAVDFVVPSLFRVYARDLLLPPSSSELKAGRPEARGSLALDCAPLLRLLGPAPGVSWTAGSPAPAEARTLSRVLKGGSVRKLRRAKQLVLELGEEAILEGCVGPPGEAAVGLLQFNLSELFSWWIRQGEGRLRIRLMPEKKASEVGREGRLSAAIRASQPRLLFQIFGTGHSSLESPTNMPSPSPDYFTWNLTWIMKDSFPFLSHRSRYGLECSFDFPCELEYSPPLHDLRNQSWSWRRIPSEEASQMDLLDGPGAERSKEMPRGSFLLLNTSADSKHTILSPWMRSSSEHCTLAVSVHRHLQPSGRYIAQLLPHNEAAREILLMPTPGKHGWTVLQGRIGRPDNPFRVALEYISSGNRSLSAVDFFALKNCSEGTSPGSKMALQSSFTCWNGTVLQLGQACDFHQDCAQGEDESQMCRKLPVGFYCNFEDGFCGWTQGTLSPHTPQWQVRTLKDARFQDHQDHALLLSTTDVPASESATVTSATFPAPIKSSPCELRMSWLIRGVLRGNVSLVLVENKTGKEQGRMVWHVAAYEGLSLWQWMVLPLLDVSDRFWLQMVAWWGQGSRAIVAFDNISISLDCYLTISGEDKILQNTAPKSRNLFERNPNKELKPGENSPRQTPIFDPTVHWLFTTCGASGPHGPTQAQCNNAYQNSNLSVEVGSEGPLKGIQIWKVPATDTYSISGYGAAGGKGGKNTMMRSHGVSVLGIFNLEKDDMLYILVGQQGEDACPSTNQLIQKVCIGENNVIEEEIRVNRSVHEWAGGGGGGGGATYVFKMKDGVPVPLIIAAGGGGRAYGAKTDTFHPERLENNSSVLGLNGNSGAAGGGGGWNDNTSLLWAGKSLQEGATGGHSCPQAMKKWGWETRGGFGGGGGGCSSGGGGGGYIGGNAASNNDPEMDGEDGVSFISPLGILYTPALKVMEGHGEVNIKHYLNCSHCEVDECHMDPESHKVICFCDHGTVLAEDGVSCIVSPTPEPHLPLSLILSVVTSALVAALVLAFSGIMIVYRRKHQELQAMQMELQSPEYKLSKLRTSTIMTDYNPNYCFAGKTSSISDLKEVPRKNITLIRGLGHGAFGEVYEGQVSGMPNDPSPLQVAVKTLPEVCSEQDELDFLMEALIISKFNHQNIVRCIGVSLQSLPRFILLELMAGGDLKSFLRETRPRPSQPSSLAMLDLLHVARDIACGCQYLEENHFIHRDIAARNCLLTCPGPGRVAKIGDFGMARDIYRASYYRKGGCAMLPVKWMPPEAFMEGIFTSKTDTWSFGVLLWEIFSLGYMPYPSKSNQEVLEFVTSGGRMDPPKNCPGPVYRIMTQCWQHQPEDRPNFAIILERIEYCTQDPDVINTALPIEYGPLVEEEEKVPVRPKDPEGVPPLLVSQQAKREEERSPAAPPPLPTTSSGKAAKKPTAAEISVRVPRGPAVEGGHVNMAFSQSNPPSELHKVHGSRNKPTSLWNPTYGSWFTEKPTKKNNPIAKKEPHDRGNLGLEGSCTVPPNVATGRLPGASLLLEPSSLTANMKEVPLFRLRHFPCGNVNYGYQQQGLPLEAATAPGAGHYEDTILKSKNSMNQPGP

| Sequence | % activity (eEF-2K (h)) [%] | % activity (EphA7 (h)) [%] | % activity (LIMK1 (h)) [%] | % activity (DDR2 (h)) [%] | % activity (TAK1 (h)) [%] | % activity (DYRK2 (h)) [%] | % activity (ALK (h)) [%] | % activity (MKK6 (h)) [%] | % activity (Met(Y1248D) (h)) [%] |
| --- | --- | --- | --- | --- | --- | --- | --- | --- | --- |
| FAKLAARLYRKALARQLGVAA [MMI-0300] | 91 | 159 | 88 | 94 | 122 | 155 | 19 | 48 | – |
| HRRIKAWLKKIKALARQLGVAA (Mammalian) [MMI-0500] | 43 | 189 | 87 | 79 | – | 127 | 12 | 18 | 218 |
| KAFAKLAARLYRKALARQLGVAA [MMI-0400] | 43 | 222 | 92 | 95 | 177 | 195 | 16 | 44 | 31 |
| YARAAARQARAKALNRQLGVA (Mammalian) [MMI-0200] | – | 220 | – | – | 124 | 142 | 95 | 98 | 118 |
